Among the data in paper PMC7618375, “Structure and Methyl-lysine Binding Selectivity of the HUSH Complex Subunit MPP8” (Journal of molecular biology, 2024) are Kd values, retold here.

The target in one test is MPP8 chromodomain (CD, residues 55-116) (human) (UniProt Q99549). As to the kind of experiment: ITC; 750 uM peptide in the syringe titrated into 50 uM MPP8 CD in the cell; 50 mM HEPES pH 7.4, 0.1 M NaCl, 0.5 mM TCEP, 25 °C; single-site model.
Details: not given
In general terms: Isothermal titration calorimetry measures the heat released or taken up as one component is titrated into another.
The term Kd denotes a measure of binding affinity in units of concentration. “ATF7IP N-terminal tail peptide trimethylated at lysine 16” yielded a Kd of 193 nM.
Consider SETDB1 peptide trimethylated at K1178, for which the Kd is more than 50000 nM.
Substance “Histone H3 peptide trimethylated at lysine 27” came in with a Kd of more than 50000 nM.
Still for that read-out and setting: the result for SETDB1 peptide trimethylated at K1170 reads 1550 nM; that for “Histone H3 peptide trimethylated at lysine 9”, 769 nM.
The substance “GLP peptide residues 199-211 with lysine 205 trimethylated (from UniProt Q9H9B1 199-211)” displayed a Kd of 337 nM.
Substance G9a peptide trimethylated at K185 showed a Kd of 1310 nM.

The target of another test is Dnmt3a (Homo sapiens) (UniProt Q9Y6K1).
Experiment: not given
Conditions: cited from earlier work.
For MPP8 chromodomain (from UniProt Q99549), the Kd was 12000 nM.
